PMC11574045, “A cofactor-induced repressive type of transcription factor condensation can be induced by synthetic peptides to suppress tumorigenesis” (The EMBO Journal, 2024)

Test system: HEK293FT cells transfected with TF library
Test: Screening of TF condensates based on fluorescent puncta
Format: cell-based
Conditions: Figure 1B numerical data; TF library screen, one value per transcriptional factor
Procedure, shortened: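 Condensate formation is scored as Alexa 488-labelled puncta after Flag- or GAL4-tag immunostaining of fixed HEK293FT cells expressing individual TFs, with a 12 h glucose-free or glucose-containing culture preceding fixation.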

B1: BLZF1 (protein, UniProt Q9H2G9 1-400, looked up)
Golgin-45: MTTKNLETKVTVTSSPIRGAGDGMETEEPPKSVEVTSGVQSRKHHSLQSPWKKAVPSESPGVLQLGKMLTEKAMEVKAVRILVPKAAITHDIPNKNTKVKSLGHHKGEFLGQSEGVIEPNKELSEVKNVLEKLKNSERRLLQDKEGLSNQLRVQTEVNRELKKLLVASVGDDLQYHFERLAREKNQLILENEALGRNTAQLSEQLERMSIQCDVWRSKFLASRVMADELTNSRAALQRQNRDAHGAIQDLLSEREQFRQEMIATQKLLEELLVSLQWGREQTYSPSVQPHSTAELALTNHKLAKAVNSHLLGNVGINNQKKIPSTVEFCSTPAEKMAETVLRILDPVTCKESSPDNPFFESSPTTLLATKKNIGRFHPYTRYENITFNCCNHCRGELIAL
- Z score of condensed fraction: -1.161

B2: THRB (protein, UniProt P10828 1-461, looked up)
Thyroid hormone receptor beta: MTPNSMTENGLTAWDKPKHCPDREHDWKLVGMSEACLHRKSHSERRSTLKNEQSSPHLIQTTWTSSIFHLDHDDVNDQSVSSAQTFQTEEKKCKGYIPSYLDKDELCVVCGDKATGYHYRCITCEGCKGFFRRTIQKNLHPSYSCKYEGKCVIDKVTRNQCQECRFKKCIYVGMATDLVLDDSKRLAKRKLIEENREKRRREELQKSIGHKPEPTDEEWELIKTVTEAHVATNAQGSHWKQKRKFLPEDIGQAPIVNAPEGGKVDLEAFSHFTKIITPAITRVVDFAKKLPMFCELPCEDQIILLKGCCMEIMSLRAAVRYDPESETLTLNGEMAVTRGQLKNGGLGVVSDAIFDLGMSLSSFNLDDTEVALLQAVLLMSSDRPGLACVERIEKYQDSFLLAFEHYINYRKHHVTHFWPKLLMKVTDLRMIGACHASRFLHMKVECPTELFPPLFLEVFED
- Z score of condensed fraction: -0.3414

B3: THAP4 (protein, UniProt Q8WY91 1-577, looked up)
Peroxynitrite isomerase THAP4: MVICCAAVNCSNRQGKGEKRAVSFHRFPLKDSKRLIQWLKAVQRDNWTPTKYSFLCSEHFTKDSFSKRLEDQHRLLKPTAVPSIFHLTEKKRGAGGHGRTRRKDASKATGGVRGHSSAATSRGAAGWSPSSSGNPMAKPESRRLKQAALQGEATPRAAQEAASQEQAQQALERTPGDGLATMVAGSQGKAEASATDAGDESATSSIEGGVTDKSGISMDDFTPPGSGACKFIGSLHSYSFSSKHTRERPSVPREPIDRKRLKKDVEPSCSGSSLGPDKGLAQSPPSSSLTATPQKPSQSPSAPPADVTPKPATEAVQSEHSDASPMSINEVILSASGACKLIDSLHSYCFSSRQNKSQVCCLREQVEKKNGELKSLRQRVSRSDSQVRKLQEKLDELRRVSVPYPSSLLSPSREPPKMNPVVEPLSWMLGTWLSDPPGAGTYPTLQPFQYLEEVHISHVGQPMLNFSFNSFHPDTRKPMHRECGFIRLKPDTNKVAFVSAQNTGVVEVEEGEVNGQELCIASHSIARISFAKEPHVEQITRKFRLNSEGKLEQTVSMATTTQPMTQHLHVTYKKVTP
- Z score of condensed fraction: -0.8956

B4: TFDP3 (protein, UniProt Q5H9I0 1-405, looked up)
Transcription factor Dp …: MAKYVSLTEANEELKVLMDENQTSRPVAVHTSTVNPLGKQLLPKTFGQSSVNIDQQVVIGMPQRPAASNIPVVGSPNPPSTHFASQNQHSYSSPPWAGQHNRKGEKNGMGLCRLSMKVWETVQRKGTTSCQEVVGELVAKFRAASNHASPNESAYDVKNIKRRTYDALNVLMAMNIISREKKKIKWIGLTTNSAQNCQNLRVERQKRLERIKQKQSELQQLILQQIAFKNLVLRNQYVEEQVSQRPLPNSVIHVPFIIISSSKKTVINCSISDDKSEYLFKFNSSFEIHDDTEVLMWMGMTFGLESGSCSAEDLKMARNLVPKALEPYVTEMAQGTFGGVFTTAGSRSNGTWLSASDLTNIAIGMLATSSGGSQYSGSRVETPAVEEEEEEDNNDDDLSENDEDD
- Z score of condensed fraction: 0.6635

B5: TGIF2LY (protein, UniProt Q8IUE0 1-185, looked up)
Homeobox protein TGIF2LY: MEAAADGPAETQSPVEKDSPAKTQSPAQDTSIMSRNNADTGRVLALPEHKKKRKGNLPAESVKILRDWMYKHRFKAYPSEEEKQMLSEKTNLSLLRISNWFINARRRILPDMLQQRRNDPIIGHKTGKDAHATHLQSTEASVPAKSGPVVQTMYKACPCGPCQRARCQERSNQIRSRPLARSSPE
- Z score of condensed fraction: 1.271

B6: THAP8 (protein, UniProt Q8NA92 1-274, looked up)
THAP domain-containing …: MPKYCRAPNCSNTAGRLGADNRPVSFYKFPLKDGPRLQAWLQHMGCEHWVPSCHQHLCSEHFTPSCFQWRWGVRYLRPDAVPSIFSRGPPAKSQRRTRSTQKPVSPPPPLQKNTPLPQSPAIPVSGPVRLVVLGPTSGSPKTVATMLLTPLAPAPTPERSQPEVPAQQAQTGLGPVLGALQRRVRRLQRCQERHQAQLQALERLAQQLHGESLLARARRGLQRLTTAQTLGPEESQTFTIICGGPDIAMVLAQDPAPATVDAKPELLDTRIPSA
- Z score of condensed fraction: 1.115

B7: THAP10 (protein, UniProt Q9P2Z0 1-257, looked up)
THAP domain-containing …: MPARCVAAHCGNTTKSGKSLFRFPKDRAVRLLWDRFVRGCRADWYGGNDRSVICSDHFAPACFDVSSVIQKNLRFSQRLRLVAGAVPTLHRVPAPAPKRGEEGDQAGRLDTRGELQAARHSEAAPGPVSCTRPRAGKQAAASQITCENELVQTQPHADNPSNTVTSVPTHCEEGPVHKSTQISLKRPRHRSVGIQAKVKAFGKRLCNATTQTEELWSRTSSLFDIYSSDSETDTDWDIKSEQSDLSYMAVQVKEETC
- Z score of condensed fraction: 1.236

B8: TFEC (protein, UniProt O14948 1-347, looked up)
Transcription factor EC: MTLDHQIINPTLKWSQPAVPSGGPLVQHAHTTLDSDAGLTENPLTKLLAIGKEDDNAQWHMEDVIEDIIGMESSFKEEGADSPLLMQRTLSGSILDVYSGEQGISPINMGLTSASCPSSLPMKREITETDTRALAKERQKKDNHNLIERRRRYNINYRIKELGTLIPKSNDPDMRWNKGTILKASVEYIKWLQKEQQRARELEHRQKKLEQANRRLLLRIQELEIQARTHGLPTLASLGTVDLGAHVTKQQSHPEQNSVDYCQQLTVSQGPSPELCDQAIAFSDPLSYFTDLSFSAALKEEQRLDGMLLDDTISPFGTDPLLSATSPAVSKESSRRSSFSSDDGDEL
- Z score of condensed fraction: 1.616

B9: TLE2 (protein, UniProt Q04725 1-743, looked up)
Transducin-like enhancer …: MYPQGRHPTPLQSGQPFKFSILEICDRIKEEFQFLQAQYHSLKLECEKLASEKTEMQRHYVMYYEMSYGLNIEMHKQAEIVKRLSGICAQIIPFLTQEHQQQVLQAVERAKQVTVGELNSLIGQQLQPLSHHAPPVPLTPRPAGLVGGSATGLLALSGALAAQAQLAAAVKEDRAGVEAEGSRVERAPSRSASPSPPESLVEEERPSGPGGGGKQRADEKEPSGPYESDEDKSDYNLVVDEDQPSEPPSPATTPCGKVPICIPARRDLVDSPASLASSLGSPLPRAKELILNDLPASTPASKSCDSSPPQDASTPGPSSASHLCQLAAKPAPSTDSVALRSPLTLSSPFTTSFSLGSHSTLNGDLSVPSSYVSLHLSPQVSSSVVYGRSPVMAFESHPHLRGSSVSSSLPSIPGGKPAYSFHVSADGQMQPVPFPSDALVGAGIPRHARQLHTLAHGEVVCAVTISGSTQHVYTGGKGCVKVWDVGQPGAKTPVAQLDCLNRDNYIRSCKLLPDGRSLIVGGEASTLSIWDLAAPTPRIKAELTSSAPACYALAVSPDAKVCFSCCSDGNIVVWDLQNQTMVRQFQGHTDGASCIDISDYGTRLWTGGLDNTVRCWDLREGRQLQQHDFSSQIFSLGHCPNQDWLAVGMESSNVEILHVRKPEKYQLHLHESCVLSLKFASCGRWFVSTGKDNLLNAWRTPYGASIFQSKESSSVLSCDISRNNKYIVTGSGDKKATVYEVVY
- Z score of condensed fraction: 0.1994

B10: THAP1 (protein, UniProt Q9NVV9 1-213, looked up)
THAP domain-containing …: MVQSCSAYGCKNRYDKDKPVSFHKFPLTRPSLCKEWEAAVRRKNFKPTKYSSICSEHFTPDCFKRECNNKLLKENAVPTIFLCTEPHDKKEDLLEPQEQLPPPPLPPPVSQVDAAIGLLMPPLQTPVNLSVFCDHNYTVEDTMHQRKRIHQLEQQVEKLRKKLKTAQQRCRRQERQLEKLKEVVHFQKEKDDVSERGYVILPNDYFEIVEVPA
- Z score of condensed fraction: -0.6542

B11: TOB1 (protein, UniProt P50616 1-345, looked up)
Protein Tob1: MQLEIQVALNFIISYLYNKLPRRRVNIFGEELERLLKKKYEGHWYPEKPYKGSGFRCIHIGEKVDPVIEQASKESGLDIDDVRGNLPQDLSVWIDPFEVSYQIGEKGPVKVLYVDDNNENGCELDKEIKNSFNPEAQVFMPISDPASSVSSSPSPPFGHSAAVSPTFMPRSTQPLTFTTATFAATKFGSTKMKNSGRSNKVARTSPINLGLNVNDLLKQKAISSSMHSLYGLGLGSQQQPQQQQQPAQPPPPPPPPQQQQQQKTSALSPNAKEFIFPNMQGQGSSTNGMFPGDSPLNLSPLQYSNAFDVFAAYGGLNEKSFVDGLNFSLNNMQYSNQQFQPVMAN
- Z score of condensed fraction: -0.3688

B12: THRA (protein, UniProt P10827 1-490, looked up)
Thyroid hormone receptor alpha: MEQKPSKVECGSDPEENSARSPDGKRKRKNGQCSLKTSMSGYIPSYLDKDEQCVVCGDKATGYHYRCITCEGCKGFFRRTIQKNLHPTYSCKYDSCCVIDKITRNQCQLCRFKKCIAVGMAMDLVLDDSKRVAKRKLIEQNRERRRKEEMIRSLQQRPEPTPEEWDLIHIATEAHRSTNAQGSHWKQRRKFLPDDIGQSPIVSMPDGDKVDLEAFSEFTKIITPAITRVVDFAKKLPMFSELPCEDQIILLKGCCMEIMSLRAAVRYDPESDTLTLSGEMAVKREQLKNGGLGVVSDAIFELGKSLSAFNLDDTEVALLQAVLLMSTDRSGLLCVDKIEKSQEAYLLAFEHYVNHRKHNIPHFWPKLLMKEREVQSSILYKGAAAEGRPGGSLGVHPEGQQLLGMHVVQGPQVRQLEQQLGEAGSLQGPVLQHQSPKSPQQRLLELLHRSGILHARAVCGEDDSSEADSPSSSEEEPEVCEDLAGNAASP
- Z score of condensed fraction: -0.4575

B13: TIEG (protein, UniProt Q13118 1-480, looked up)
Krueppel-like factor 10: MLNFGASLQQTAEERMEMISERPKESMYSWNKTAEKSDFEAVEALMSMSCSWKSDFKKYVENRPVTPVSDLSEEENLLPGTPDFHTIPAFCLTPPYSPSDFEPSQVSNLMAPAPSTVHFKSLSDTAKPHIAAPFKEEEKSPVSAPKLPKAQATSVIRHTADAQLCNHQTCPMKAASILNYQNNSFRRRTHLNVEAARKNIPCAAVSPNRSKCERNTVADVDEKASAALYDFSVPSSETVICRSQPAPVSPQQKSVLVSPPAVSAGGVPPMPVICQMVPLPANNPVVTTVVPSTPPSQPPAVCPPVVFMGTQVPKGAVMFVVPQPVVQSSKPPVVSPNGTRLSPIAPAPGFSPSAAKVTPQIDSSRIRSHICSHPGCGKTYFKSSHLKAHTRTHTGEKPFSCSWKGCERRFARSDELSRHRRTHTGEKKFACPMCDRRFMRSDHLTKHARRHLSAKKLPNWQMEVSKLNDIALPPTPAPTQ
- Z score of condensed fraction: 1.047

B14: THAP6 (protein, UniProt Q8TBB0 1-222, looked up)
THAP domain-containing …: MVKCCSAIGCASRCLPNSKLKGLTFHVFPTDENIKRKWVLAMKRLDVNAAGIWEPKKGDVLCSRHFKKTDFDRSAPNIKLKPGVIPSIFDSPYHLQGKREKLHCRKNFTLKTVPATNYNHHLVGASSCIEEFQSQFIFEHSYSVMDSPKKLKHKLDHVIGELEDTKESLRNVLDREKRFQKSLRKTIRELKDECLISQETANRLDTFCWDCCQESIEQDYIS
- Z score of condensed fraction: 2.571
